{
  "source": "paper PMC9900621",
  "about": "“5-Formyltetrahydrofolate promotes conformational remodeling in a methylenetetrahydrofolate reductase active site and inhibits its activity” (The Journal of Biological Chemistry, 2022)",
  "key": {"[1]": {"target": "T1, methylenetetrahydrofolate reductase (tMTHFR) (Thermus thermophilus, UniProt Q5SLG6, E18Q)", "T1 construct": "gene TTHA0327; recombinant, uncleavable C-terminal hexa-Histidine tag", "T1 sequence (Q5SLG6 1-296 E18Q)": "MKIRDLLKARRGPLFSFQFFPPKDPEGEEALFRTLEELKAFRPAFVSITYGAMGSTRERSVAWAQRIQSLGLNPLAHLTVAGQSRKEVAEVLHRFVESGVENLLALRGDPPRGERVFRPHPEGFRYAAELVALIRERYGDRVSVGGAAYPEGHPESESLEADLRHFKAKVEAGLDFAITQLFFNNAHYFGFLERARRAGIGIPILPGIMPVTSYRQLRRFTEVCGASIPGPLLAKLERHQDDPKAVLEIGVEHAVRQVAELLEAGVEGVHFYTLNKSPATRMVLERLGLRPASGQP", "assay": "crystal structure ([…] Å, pH […])", "format": "binding"}, "[2]": {"target": "the molecule itself", "assay": "crystal structure; tMTHFR cocrystallised with CHO-H4folate, FAD-replete; reservoir 0.1 M sodium acetate pH 4.5, 2.5 M NaCl, 0.2 M lithium sulfate, 1.2% myo-inositol, 4 °C; 1.45 Å"}, "[3]": {"target": "the molecule itself", "assay": "crystal structure; folate-free tMTHFR Glu18Gln, as purified, with 0.6 mM CH3-H4folate; reservoir 0.1 M Hepes pH 7.8, 1 M LiCl, 20% PEG 6000, 20 °C, hanging drop; 1.90 Å"}},
  "data": [
    {"molecule": "Cc1cc2nc3c(=O)[nH]c(=O)nc-3n(C[C@H](O)[C@H](O)[C@H](O)COP(=O)(O)OP(=O)(O)OC[C@H]3O[C@@H](n4cnc5c(N)ncnc54)[C@H](O)[C@@H]3O)c2cc1C", "note": "[FAD]", "values": [
      {"measurement": "crystal structure (1.90 Å, pH 7.8)", "setting": "[1]", "result": "presence of a small-molecule was found in the active site near FAD"}
    ]},
    {"molecule": "Thermus thermophilus HB8 methylenetetrahydrofolate reductase (tMTHFR), wild type (enzyme, Uncleavable hexa-histidine tag on the C-terminus; Crystallised FAD-replete, with or without CHO-H4folate; also called tMTHFR^wt; MTHFR^wt; not shown: His6, C-terminal, kept) MKIRDLLKARRGPLFSFEFFPPKDPEGEEALFRTLEELKAFRPAFVSITYGAMGSTRERSVAWAQRIQSLGLNPLAHLTVAGQSRKEVAEVLHRFVESGVENLLALRGDPPRGERVFRPHPEGFRYAAELVALIRERYGDRVSVGGAAYPEGHPESESLEADLRHFKAKVEAGLDFAITQLFFNNAHYFGFLERARRAGIGIPILPGIMPVTSYRQLRRFTEVCGASIPGPLLAKLERHQDDPKAVLEIGVEHAVRQVAELLEAGVEGVHFYTLNKSPATRMVLERLGLRPASGQP", "values": [
      {"measurement": "binding result", "setting": "[2]", "result": "binds"}
    ]},
    {"molecule": "Thermus thermophilus HB8 methylenetetrahydrofolate reductase Glu18Gln mutant (enzyme, methylenetetrahydrofolate reductase of Thermus thermophilus HB8 with Glu18Gln, expressed from pET(tMR^Glu18Gln-H); Uncleavable hexa-histidine tag on the C-terminus; Crystallised as purified, with 0.6 mM CH3-H4folate that could not be assigned in the density; also called tMTHFR^Glu18Gln; MTHFR^Glu18Gln; not shown: His6, C-terminal, kept) MKIRDLLKARRGPLFSFQFFPPKDPEGEEALFRTLEELKAFRPAFVSITYGAMGSTRERSVAWAQRIQSLGLNPLAHLTVAGQSRKEVAEVLHRFVESGVENLLALRGDPPRGERVFRPHPEGFRYAAELVALIRERYGDRVSVGGAAYPEGHPESESLEADLRHFKAKVEAGLDFAITQLFFNNAHYFGFLERARRAGIGIPILPGIMPVTSYRQLRRFTEVCGASIPGPLLAKLERHQDDPKAVLEIGVEHAVRQVAELLEAGVEGVHFYTLNKSPATRMVLERLGLRPASGQP", "values": [
      {"measurement": "binding result", "setting": "[3]", "result": "binds"}
    ]}
  ]
}
